Results on one molecule are retold here after CN114989309A.

For this assay, the target named is T1, 抗原表位融合多肽AFBMG.
T1 sequence: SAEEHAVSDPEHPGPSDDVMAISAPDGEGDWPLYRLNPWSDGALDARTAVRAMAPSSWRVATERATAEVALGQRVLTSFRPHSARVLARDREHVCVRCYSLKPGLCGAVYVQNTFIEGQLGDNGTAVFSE
As to the kind of experiment: colloidal gold test strip with gold-labelled Nano-AF; dilution series of AFBMG from 1 mg/mL, three repeats.

B1: 黄曲霉毒素纳米抗体Nano-AF (VHH)
VHH: QLQLGGSGGGLVQPGGLVQACAASGSTFAGFRAMGWRQAFRQAREFVAAITWSGASTYYTDSVKGRFTISRDNAKNTVYLQMNNLESLKPEDTAVYYCAGFMYYASNYCRYWGQGTQVTVSS
B1 had a 最低检测限 of 10 ng/mL.
